Reference: patent publication US20250235548A1, “ANTIBODY-DRUG CONJUGATES TARGETING NAPI2B AND METHODS OF USE” (Zymeworks BC Inc., priority 2022, published 2025)
Substitutions are numbered along the chain they refer to.

B1: v29453: "Representative humanized antibody variants ... of the mouse antibody" that specifically binds hNaPi2b (antibody, V domains shown)
VH: QVQLVQSGAEVKKPGASVKMSCKASGFTFTSYNVHWVRQAPGQGLEWIAAISPGNGDLSYAQKFQGRATLTVDRSTSTAYMELSSLRSEDTAVYYCARGRTGMGAVDYWGQGTLVTVSS
VL: DVQMTQSPSSLSASVGDRVTITCRASQDVYSYLNWYQQKPGKAVKLLIYYTSRLQSGVPSRFSGSGSGTDYTLTISSLQPEDFATYYCQQYNIFPWTFGQGTKLEIK
modifications: v29449, v29453, v29457 VH (H4); v29453, v29454, v29455, v29456 VL (L2)
B2: v29454: "Representative humanized antibody variants ... of the mouse antibody" that specifically binds hNaPi2b (antibody, V domains shown)
VH: B1 VH with R74T
VL: B1 VL
modifications: v29450, v29454, v29458 VH (H3); v29453, v29454, v29455, v29456 VL (L2)
B3: v29458: "Representative humanized antibody variants ... of the mouse antibody" that specifically binds hNaPi2b (antibody, V domains shown)
VH: B1 VH with R74T
VL: B1 VL with V2I, V44P, Y71F
modifications: v29450, v29454, v29458 VH (H3); v29457, v29458, v29459, v29460 VL (L1)
B4: v29457: "Representative humanized antibody variants ... of the mouse antibody" that specifically binds hNaPi2b (antibody, V domains shown)
VH: B1 VH
VL: B1 VL with V2I, V44P, Y71F
modifications: v29449, v29453, v29457 VH (H4); v29457, v29458, v29459, v29460 VL (L1)
B5: v29449: "Representative humanized antibody variants ... of the mouse antibody" that specifically binds hNaPi2b (antibody, V domains shown)
VH: B1 VH
VL: B1 VL with F83I
modifications: v29449, v29453, v29457 VH (H4); v29449, v29450, v29451, v29452 VL (L3)
B6: v29460: "Representative humanized antibody variants ... of the mouse antibody" that specifically binds hNaPi2b (antibody, V domains shown)
VH: B1 VH with M20V, I48M, A49G, A68V, L70M, V72R, R74T, A79V
VL: B1 VL with V2I, V44P, Y71F
modifications: v29452, v29456, v29460 VH (H1); v29457, v29458, v29459, v29460 VL (L1)
B7: v29451: "Representative humanized antibody variants ... of the mouse antibody" that specifically binds hNaPi2b (antibody, V domains shown)
VH: B1 VH with M20V, A68V, L70M, R74T, A79V
VL: B1 VL with F83I
modifications: v29451, v29455, 29459 VH (H2); v29449, v29450, v29451, v29452 VL (L3)
B8: v29450: "Representative humanized antibody variants ... of the mouse antibody" that specifically binds hNaPi2b (antibody, V domains shown)
VH: B1 VH with R74T
VL: B1 VL with F83I
modifications: v29450, v29454, v29458 VH (H3); v29449, v29450, v29451, v29452 VL (L3)
B9: v29455: "Representative humanized antibody variants ... of the mouse antibody" that specifically binds hNaPi2b (antibody, V domains shown)
VH: B1 VH with M20V, A68V, L70M, R74T, A79V
VL: B1 VL
modifications: v29451, v29455, 29459 VH (H2); v29453, v29454, v29455, v29456 VL (L2)

Biological target: T1, NaPi2b expressed on IGROV-1 cells (Homo sapiens, UniProt O95436)
T1 construct: endogenous NaPi2b-expressing cancer cell lines IGROV-1 (ovarian carcinoma); endogenous in cells; host or cells: IGROV-1
T1 sequence (O95436 1-690): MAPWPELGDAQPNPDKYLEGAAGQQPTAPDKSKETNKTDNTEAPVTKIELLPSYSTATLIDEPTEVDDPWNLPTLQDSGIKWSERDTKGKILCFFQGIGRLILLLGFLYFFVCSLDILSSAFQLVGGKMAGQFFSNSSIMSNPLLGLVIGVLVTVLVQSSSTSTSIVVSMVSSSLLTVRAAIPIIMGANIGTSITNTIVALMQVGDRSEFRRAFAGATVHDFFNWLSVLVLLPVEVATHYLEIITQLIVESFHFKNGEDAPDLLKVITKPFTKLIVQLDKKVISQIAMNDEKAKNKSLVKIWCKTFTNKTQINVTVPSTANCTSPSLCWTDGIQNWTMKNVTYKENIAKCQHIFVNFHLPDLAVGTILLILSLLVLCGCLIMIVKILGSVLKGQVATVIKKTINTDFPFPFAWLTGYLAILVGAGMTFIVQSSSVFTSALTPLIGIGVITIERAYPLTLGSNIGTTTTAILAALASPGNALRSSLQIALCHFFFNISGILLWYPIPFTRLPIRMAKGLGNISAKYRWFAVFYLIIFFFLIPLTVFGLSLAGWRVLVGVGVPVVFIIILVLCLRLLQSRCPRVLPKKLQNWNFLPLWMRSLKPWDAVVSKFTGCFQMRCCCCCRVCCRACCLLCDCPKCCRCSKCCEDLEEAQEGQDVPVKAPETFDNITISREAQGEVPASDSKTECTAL
Assay: Cellular binding of bivalent antibodies by flow cytometry (Example 16)
Details: AF647 GeoMean; 24 hours at 4° C.; NB = no cellular binding
Protocol: IGROV-1 cells express endogenous NaPi2b at a high level.
Briefly, cells were seeded at 50,000 cells/well in conical-bottom 96-well plates and treated with test antibody for 24 hours at 4° C. to prevent internalization. […] Following incubation and washing, fluorescence was detected by flow cytometry on a BD LSRFortessa™ Cell Analyzer (BD Biosciences, Franklin Lake, NJ) with 1,000 minimum events collected per well.

| Molecule | Bmax, IGROV-1 |
| --- | --- |
| B1 | 44,480 |
| B2 | 42,278 |
| B3 | 40,793 |
| B4 | 44,539 |
| B5 | 44,460 |
| B6 | 40,071 |
| B7 | 46,170 |
| B8 | 43,809 |
| B9 | 41,917 |

Same assay, conditions: NB = no cellular binding

| Molecule | Curve Hill Slope (h), IGROV-1 |
| --- | --- |
| B1 | 1.2 |
| B2 | 1.0 |
| B3 | 1.1 |
| B4 | 1.0 |
| B5 | 1.3 |
| B6 | 1.2 |
| B7 | 1.1 |
| B8 | 1.2 |
| B9 | 1.1 |

System: not listed separately
Assay: Thermal stability by differential scanning calorimetry (Example 8)
Type: physicochemical
Details: DSC, 0.4 mg/mL in PBS, 20° C. to 100° C. at 60° C./hr
Protocol: The thermal stability of the humanized antibody variants was assessed by differential scanning calorimetry (DSC) as described below.
400 μL of purified samples primarily at concentrations of 0.4 mg/mL in PBS were used for DSC analysis with a VP-Capillary DSC (Malvern Panalytical Inc., Westborough, MA). At the start of each DSC run, 5 buffer blank injections were performed to stabilize the baseline, and a buffer injection was placed before each sample injection for referencing. Each sample was scanned from 20° C. to 100° C. at a 60° C./hr rate, with low feedback, 8 sec filter, 3 min pre-scan thermostat, and 70 psi nitrogen pressure. The resulting thermograms were referenced and analyzed using Origin 7 software (OriginLab Corporation, Northampton, MA) to determine melting temperature (Tm) as an indicator of thermal stability.

| Molecule | Fab Tm (° C.) [°C] |
| --- | --- |
| B1 | 78.9 |
| B2 | 79.7 |
| B3 | 81.6 |
| B4 | 80.5 |
| B5 | 80.0 |
| B6 | 80.3 |
| B7 | 83.0 |
| B8 | 81.0 |
| B9 | 81.5 |
